Tested on: MS2 coat protein
Experiment: apparent KD of MS2 coat protein; designed switch direction (-1 OFF switch, 1 ON switch): -1; higher = weaker reporter binding
Method in brief: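 Stalled E. coli RNA polymerase transcribed designed RNA switches on Illumina chips, which were then titrated with SNAP-549-labelled MS2 coat protein, doubling from 0.7 or 1.5 nM to 3 µM. Steps lasted from 0.8–1.5 h at the lowest concentration to 10–20 min at the highest. The apparent KD is each design's median over clusters of curve-fitted normalised fluorescence.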

[1] = input ligand: microRNA oligo, concentration not stated
[2] = Eterna round: R95, input ligand: microRNA oligo, concentration not stated
[3] = Eterna round: R95, input ligand: FMN 200 uM
[4] = Eterna round: R95, input ligand: none

| Sequence | apparent KD of MS2 coat protein (input ligand: FMN 200 uM) [nM] | apparent KD of MS2 coat protein (input ligand: none) [nM] | apparent KD of MS2 coat protein [1] [nM] | apparent KD of MS2 coat protein [2] [nM] | apparent KD of MS2 coat protein [3] [nM] | apparent KD of MS2 coat protein [4] [nM] |
| --- | --- | --- | --- | --- | --- | --- |
| AUCAUAACCUAGGAUAUGUAGCAGCCCGCAGCGACAGAAGGAGGUACAUGAGGAUCACCCAUGUCCACUCCCGU [EX6 C.11] (Eterna round: R97, puzzle: Exclusion 6) | 12.4 | 11.8 | – | – | – | – |
| AAGAUGUAAGGAUAUGCUGCUCGUCACAAAAGUGAUGAGUAGCAGAAGGUACAUGAGGAUCACCCAUGUAGAGA [Opal 38] (Eterna round: R96, puzzle: Exclusion 4) | 60.6 | 22.7 | 18.2 | – | – | – |
| CUGAACCCGGUAGGAUAUAUUGUGGGCAAGCAUGGAACGACAUGAGGAUCACCCAUGUAAUUUAGGUAGAAGGGCCAAAAGAUU [Excl-NG2-LRO09] (Eterna round: R96, puzzle: Exclusion NG 2) | 34.6 | 53.9 | 28.9 | – | – | – |
| GUCUUGAUAGGAUAUACAUGAGGAUCACCCAUGUCCCACCCGUUACCUCUGACCCUAUGUAGAAGGAUCGUUUG [Exy#17] (Eterna round: R97, puzzle: Exclusion 3) | 34.3 | 48.3 | – | – | – | – |
| AGGUAACAUGAGGAUCACCCAUGUCAGGAUAUCAUGAAGAGGAGAUUAGAGGAGAGGUUGAGAAGGGACUAUAU [Excluse me! 14 - Jieux - Exclusion 1] (puzzle: Exclusion 1) | – | – | – | 57.1 | – | – |
| AGAAAGGAAGGAUAUACAAGAAAGCUGGGCAACGUCUCAGAACAUGAGGAUCACCCAUGUAGAAGGUCCAGGAA [Bienqura] (puzzle: Exclusion 2) | – | – | – | 22.6 | – | – |
| UUGAAACAUACCUCCAUAAACAUGAGGAUCACCCAUGUAAGUGAGGAUAUAGAUUGAUUAGUAUACUAGAAGGCACUUAGAUAU [JR_ExcNG3_Sub043] (Eterna round: R96, puzzle: Exclusion NG 3) | 10.4 | 10.5 | 10.8 | – | – | – |
| GAAAAGGUAGGAUAUACGAAAACAAAGGGUAGAAACAAAACACAUGAGGAUCACCCAUGUAGAAGGACCAAAAG [salish99_ex2_r3_097] (puzzle: Exclusion 2) | – | – | – | 25.6 | 164 | 25.4 |
| ACAUGAGGAUCACCCAUGUGACCACGAUGGCUGAUGUAGACCUAGGAUAUGUGUGAAUAUCUAUCACAGAAGGAGGUUGACUGG [Deportation 51 - Jieux - Exclusion NG 3] (Eterna round: R96, puzzle: Exclusion NG 3) | 44.4 | 42.7 | 34.3 | – | – | – |
| GGAUCUUGGGUCAGGAUAUGCUGAUAGUUAUGUCAGCAGAAGGGACAUGAGGAUCACCCAUGUGCUUGGUUUUG [Magic-17] (Eterna round: R96, puzzle: Brourd's mod of Exclusion 4) | 40.9 | 17.2 | 12.7 | – | – | – |
| AGGGAUAAAGGAUAUACAUGAGGAUCACCCAUGUUGAGGAAAGUGAGAGGUGGCGAUAGUAGAAGGUUAGGUGG [JR_Exclu3_Sub083] (puzzle: Exclusion 3) | – | – | – | 79.9 | – | – |
| UUUUUAGAUGAAGGAUAUACUUAACAUGAGGAUCACCCAUGUGGUGUUGUGAGUGAGUGAGUUUAGUAGAAGGUCAAGUAUUUU [JMF's solution 45] (Eterna round: R96, puzzle: Exclusion NG 2) | 769 | 404 | 377 | – | – | – |
| ACAUGAGGAUCACCCAUGUGACCACAAUGGCUGAUGUAACAACAGGAUAUGCGUGAAUAUCUAACGCAGAAGGGUUUUGACUGG [Deportation 59 - Jieux - Exclusion NG 3] (Eterna round: R96, puzzle: Exclusion NG 3) | 84.5 | 91.1 | 71.5 | – | – | – |
| GAGCACUGCCGAGGAUAUCCACAUGAGGAUCACCCAUGUAGUGAAAAGUCCCAGUAGAACCAAAUGGAGAAGGUGGCAAGAUAU [Eternabot solution 21] (Eterna round: R96, puzzle: Exclusion NG 2) | 23.2 | 17.9 | 20 | – | – | – |
| GAUUAACAUGAGGAUCACCCAUGUGAGGAUAUGGACUUGCCCACUUACCCAUUAGAGUCUAGAAGGCGCAUCUC [1986#2\9] (Eterna round: R97, puzzle: Exclusion 1) | 25.7 | 25.3 | – | – | – | – |
| ACGCAUUGCCAAAGGUAAUGCGUUACAUGAGGAUCACCCAUGUAGGAUAUGGUAGGCAAAGCUUACCAGAAGGACAUGAUAAUU [Mat - Exclusion NG 3 - Mod of JL - D7] (Eterna round: R96, puzzle: Exclusion NG 3) | 219 | 57 | 40 | – | – | – |
| UACAUGAGGAUCACCCAUGUUUUGUCGUGUAUGGUAUUUAUCUAGGAUAUCAGUUUAUUUAUUUAUGAGAAGGAGAAUAUUAAU [JMF's solution 7] (Eterna round: R96, puzzle: Exclusion NG 3) | 28 | 32.7 | 22.4 | – | – | – |
| UUAAAUCAUGUAGGAUAUGCGUGGCGAAGCUAUGCAGAAGGACAUGAGGAUCACCCAUGUCUUUCCGUCUGCGUACAGAUGGAA [JL Eng1 1.08 mod 2] (Eterna round: R96, puzzle: Exclusion NG 1) | 259 | 24.8 | 19.8 | – | – | – |
| AGUAGGUCUACCUUGGUGGAUCUGCAUUAUUCAAGUGUUACAUGAGGAUCACCCAUGUCCUCAUUUGCUCGUCUUAU [JL turnoff v2 99.25] (puzzle: Sensor v3, turn-off variant 2) | – | – | – | 45.7 | 385 | 417 |
| CUUUUGUGAGGAUAUCAGUAGUAAAAAAAUAAAAUUACUACUGAGAAGGCACAUGAGGAUCACCCAUGUUCCUC [EX4 344: Super Stable 44] (Eterna round: R96, puzzle: Exclusion 4) | 343 | 42.4 | 36.3 | – | – | – |
| AAUCCACAUGAGGAUCACCCAUGUCAGGAUAUCGCGCGCGCGUUUUCGGUCUUUCGCGCGAGAAGGGACGGCUG (puzzle: Exclusion 1) | – | – | – | 16.3 | – | – |
| UGCUGACGAGGAUAUACAUGAGGAUCACCCAUGUUGGUCAAGCGACGAUAGUCGCAAUGUAGAAGGCGUCAGCA [E3/8-A2] (Eterna round: R97, puzzle: Exclusion 3) | 239 | 405 | – | – | – | – |
| UUUUAACAUGAGGAUCACCCAUGUGAGGAUAUCGAAAUUUAUAUUAAUAUUUAUAUAACGAGAAGGCACAUUUU [JMF 55] (puzzle: Exclusion 1) | – | – | – | 65.3 | – | – |
| CAGUACUGAGGAUAUACAUGAGGAUCACCCAUGUGUUCCAGCUAGGAUACUAGCAAGUGUAGAAGGCAGUACUG [Mat - Exclusion 3 - Eli Mod - D7] (Eterna round: R97, puzzle: Exclusion 3) | 188 | 396 | – | – | – | – |
| CCUCACAGAGGAUAUACGUCCACUGAACCCAUGAGGUUGCCACAUGAGGAUCACCCAUGUAGAAGGCUGUGCUG [Mageanma] (puzzle: Exclusion 2) | – | – | – | 18.9 | – | – |
